Where no end group is shown, it is not given here.
How the values were obtained:
C. albicans ATCC 10231 [1] = assay: Propidium iodide uptake assay in pH-buffered conditions (MES buffer); format: cell-based, Candida albicans; conditions: 30 min
Protocol: (§1) For fungal growth assays, overnight cultures of C. albicans ATCC 10231 cells (yeast peptone dextrose broth, 30°C, shaking at 160 rpm) were pelleted (2000 g, 5 min), washed once in 0.5× potato dextrose broth (BD Biosciences, Franklin Lakes, NJ) and finally resuspended in the same media. Cells were seeded onto a 96-well plate (400 cells, 50 µL) and treated with an equal volume of varying concentrations of defensin in 0.5× potato dextrose broth. After incubating the samples (24 h, 30 °C), the plates were shaken to distribute the cells and growth was determined by performing a 9-well scan (600 nm) using a Spectramax M5e microplate reader (Molecular Devices, San Jose, CA). For assays testing defensin salt tolerance, C. albicans cells were instead resuspended in 1x potato dextrose broth and treated with an equal volume of CpoBD13 + NaCl solution at their intended concentrations. Propidium iodide (PI) uptake assays were performed by preparing the cells as per the standard growth inhibition assay however they were instead seeded onto a U-bottom 96-well plate (50,000 cells, 25 µL). […] For PI uptake experiments performed at a specific pH, the same method was followed with the exception that cells were resuspended in 1× potato dextrose broth while defensin titrations were diluted in 40 mM MES buffer at the intended pH. An example PI uptake gating strategy is presented in Supplementary Fig. 1d.

C. albicans ATCC 10231 [2] = assay: Fungal growth inhibition assay, salt tolerance (NaCl); format: cell-based, Candida albicans; conditions: NaCl concentrations of 100 mM; 24 h
Protocol: as §1

U937 cells [3] = assay: MTT/MTS cell viability assay; format: cell-based, human; conditions: 48 h, at the assessed concentrations
From the text: (§2) Human epithelial cervical cancer (HeLa, ATCC, CCL-2), prostate cancer (PC3, ATCC, CRL-1435) and histiocytic lymphoma (U937, ATCC, CRL-1593.2) cells were obtained from the American Type Culture Collection (Gaithersburg, Maryland) and cultured in RPMI-1640 medium (Thermo Fisher Scientific, Waltham, MA) supplemented with 5–10% (v/v) foetal bovine serum (FBS), 100 U/mL penicillin and 100 U/mL streptomycin (Invitrogen, Carlsbad, CA). Adult human dermal fibroblasts (AHDF, Lonza, CC-2511) cells were obtained from Lonza (Basel, Switzerland) and cultured in Dulbecco’s Modified Eagle Medium (DMEM) (Thermo Fisher Scientific) supplemented with 10% (v/v) FBS, 100 U/mL penicillin and 100 U/mL streptomycin. Human umbilical vein epithelial (HUVEC, Lonza, CC-2519) cells were obtained from Lonza and cultured in EBM-2 medium supplemented with EGM-2 SingleQuots (Lonza). All cell lines were maintained at 37 °C in a humidified incubator with 5% CO2.
(§3) Cell viability assays were performed using MTT/MTS as previously described[8].

U937 cells [4] = assay: Propidium iodide uptake assay in serum-free medium; format: cell-based, human
Protocol: For propidium iodide uptake assays in serum-free medium, U937 cells (after centrifugation at 300 g, 5 min) were washed once in serum-free RPMI-1640, pelleted again (as previous centrifugation) and resuspended in serum-free media. […] PI (diluted in ice-cold PBS) was added to a final concentration of 1 µg/mL before analysis by flow cytometry using a BD FACSCanto II with FACSDiva 8.0.1 (BD Biosciences).

PC3 cells = assay: MTT/MTS cell viability assay; format: cell-based, human; conditions: 48 h, at the assessed concentrations
From the text: as §2, §3

HeLa cells = assay: MTT/MTS cell viability assay; format: cell-based, human; conditions: 48 h, at the assessed concentrations
From the text: as §2, §3

From the text for AHDF cells: as §2, §3
From the text for HUVEC cells: as §2, §3

## CpoBD13: saltwater crocodile β-defensin 13, histidine-rich, three disulphide bonds, recombinantly expressed in Pichia pastoris (NGSYYSTLQCRNNHGHCRRLCFHGEQWIGNCNGRHQHCCK; disulfide (positions not given here); also: three disulphide bonds, pairings not given here)
C. albicans ATCC 10231 [1]; pH 5.5
  membrane permeabilising activity: highly effective
C. albicans ATCC 10231 [1]; pH 6.5
  membrane permeabilising activity: significantly reduced
C. albicans ATCC 10231 [1]; pH 7.5
  membrane permeabilising activity: most dramatic loss of activity
AHDF cells
  effect on cell viability: did not affect the viability
C. albicans ATCC 10231 [2]
  antifungal activity in NaCl: retained antifungal activity
U937 cells [3]
  effect on cell viability: did not affect the viability
U937 cells [4]; 1.5625 μM CpoBD13, replicate 1
  PI positivity (%): 3.27%
U937 cells [4]; 1.5625 μM CpoBD13, replicate 2
  PI positivity (%): 9.7%
U937 cells [4]; 1.5625 μM CpoBD13, replicate 3
  PI positivity (%): 3.5%
U937 cells [4]; 3.125 μM CpoBD13, replicate 1
  PI positivity (%): 2.47%
U937 cells [4]; 3.125 μM CpoBD13, replicate 2
  PI positivity (%): 6.8%
U937 cells [4]; 3.125 μM CpoBD13, replicate 3
  PI positivity (%): 4.1%
U937 cells [4]; 6.25 μM CpoBD13, replicate 1
  PI positivity (%): 1.67%
U937 cells [4]; 6.25 μM CpoBD13, replicate 2
  PI positivity (%): 10.8%
U937 cells [4]; 6.25 μM CpoBD13, replicate 3
  PI positivity (%): 1%
U937 cells [4]; 12.5 μM CpoBD13, replicate 1
  PI positivity (%): 3.27%
U937 cells [4]; 12.5 μM CpoBD13, replicate 2
  PI positivity (%): 9.1%
U937 cells [4]; 12.5 μM CpoBD13, replicate 3
  PI positivity (%): 14.3%
U937 cells [4]; 25 μM CpoBD13, replicate 1
  PI positivity (%): 2.27%
U937 cells [4]; 25 μM CpoBD13, replicate 2
  PI positivity (%): 13.1%
U937 cells [4]; 25 μM CpoBD13, replicate 3
  PI positivity (%): 14.3%
U937 cells [4]; 50 μM CpoBD13, replicate 1
  PI positivity (%): 2.77%
U937 cells [4]; 50 μM CpoBD13, replicate 2
  PI positivity (%): 20.5%
U937 cells [4]; 50 μM CpoBD13, replicate 3
  PI positivity (%): 18.6%
U937 cells [4]; 100 μM CpoBD13, replicate 1
  PI positivity (%): 15.77%
U937 cells [4]; 100 μM CpoBD13, replicate 2
  PI positivity (%): 6.8%
U937 cells [4]; 100 μM CpoBD13, replicate 3
  PI positivity (%): 23%
U937 cells [4]; serum-free media, 30 min, 37°C
  membrane permeabilisation (PI uptake): unable to effectively permeabilise
PC3 cells
  effect on cell viability: did not affect the viability
HUVEC cells
  effect on cell viability: did not affect the viability
HeLa cells
  effect on cell viability: did not affect the viability

From article PMC9977887, “Crocodile defensin (CpoBD13) antifungal activity via pH-dependent phospholipid targeting and membrane disruption” (Nature Communications, 2023)
